Laboratory results published in patent publication US11965039B2, “Compstatin analogues and their medical uses” (priority 2018, dated 2024).
Starred links: 1 amine or outer side, 2 acyl side, 3 side chain; linkers in the order of their positions; H or OH if unused. Positions of bridges follow the written chain, without caps; N, C: chain ends. Non-standard residues stand in square brackets, D forms with d. Groups on a side chain read outwards from the residue. *: point of attachment. C20 diacid = O=C(O)CCCCCCCCCCCCCCCCCCC(=O)*; Trp(1-Me) = Cn1cc(C[C@H](N)C(=O)O)c2ccccc21; C18 diacid = O=C(O)CCCCCCCCCCCCCCCCC(=O)*; C16 diacid = O=C(O)CCCCCCCCCCCCCCC(=O)*; γGlu = O=C(O)[C@H](CCC(=O)[*:2])N[*:1]; AEEA = NCCOCCOCC(=O)O; Sar = CNCC(=O)O

The binders below were run against Human C3 (Complement tech cat #A113c) (human, UniProt P01024 23-1663) (assay: cell-based or functional assay).
Sequence of Human C3 (Complement tech cat #A113c) (P01024 23-1663 limits assumed): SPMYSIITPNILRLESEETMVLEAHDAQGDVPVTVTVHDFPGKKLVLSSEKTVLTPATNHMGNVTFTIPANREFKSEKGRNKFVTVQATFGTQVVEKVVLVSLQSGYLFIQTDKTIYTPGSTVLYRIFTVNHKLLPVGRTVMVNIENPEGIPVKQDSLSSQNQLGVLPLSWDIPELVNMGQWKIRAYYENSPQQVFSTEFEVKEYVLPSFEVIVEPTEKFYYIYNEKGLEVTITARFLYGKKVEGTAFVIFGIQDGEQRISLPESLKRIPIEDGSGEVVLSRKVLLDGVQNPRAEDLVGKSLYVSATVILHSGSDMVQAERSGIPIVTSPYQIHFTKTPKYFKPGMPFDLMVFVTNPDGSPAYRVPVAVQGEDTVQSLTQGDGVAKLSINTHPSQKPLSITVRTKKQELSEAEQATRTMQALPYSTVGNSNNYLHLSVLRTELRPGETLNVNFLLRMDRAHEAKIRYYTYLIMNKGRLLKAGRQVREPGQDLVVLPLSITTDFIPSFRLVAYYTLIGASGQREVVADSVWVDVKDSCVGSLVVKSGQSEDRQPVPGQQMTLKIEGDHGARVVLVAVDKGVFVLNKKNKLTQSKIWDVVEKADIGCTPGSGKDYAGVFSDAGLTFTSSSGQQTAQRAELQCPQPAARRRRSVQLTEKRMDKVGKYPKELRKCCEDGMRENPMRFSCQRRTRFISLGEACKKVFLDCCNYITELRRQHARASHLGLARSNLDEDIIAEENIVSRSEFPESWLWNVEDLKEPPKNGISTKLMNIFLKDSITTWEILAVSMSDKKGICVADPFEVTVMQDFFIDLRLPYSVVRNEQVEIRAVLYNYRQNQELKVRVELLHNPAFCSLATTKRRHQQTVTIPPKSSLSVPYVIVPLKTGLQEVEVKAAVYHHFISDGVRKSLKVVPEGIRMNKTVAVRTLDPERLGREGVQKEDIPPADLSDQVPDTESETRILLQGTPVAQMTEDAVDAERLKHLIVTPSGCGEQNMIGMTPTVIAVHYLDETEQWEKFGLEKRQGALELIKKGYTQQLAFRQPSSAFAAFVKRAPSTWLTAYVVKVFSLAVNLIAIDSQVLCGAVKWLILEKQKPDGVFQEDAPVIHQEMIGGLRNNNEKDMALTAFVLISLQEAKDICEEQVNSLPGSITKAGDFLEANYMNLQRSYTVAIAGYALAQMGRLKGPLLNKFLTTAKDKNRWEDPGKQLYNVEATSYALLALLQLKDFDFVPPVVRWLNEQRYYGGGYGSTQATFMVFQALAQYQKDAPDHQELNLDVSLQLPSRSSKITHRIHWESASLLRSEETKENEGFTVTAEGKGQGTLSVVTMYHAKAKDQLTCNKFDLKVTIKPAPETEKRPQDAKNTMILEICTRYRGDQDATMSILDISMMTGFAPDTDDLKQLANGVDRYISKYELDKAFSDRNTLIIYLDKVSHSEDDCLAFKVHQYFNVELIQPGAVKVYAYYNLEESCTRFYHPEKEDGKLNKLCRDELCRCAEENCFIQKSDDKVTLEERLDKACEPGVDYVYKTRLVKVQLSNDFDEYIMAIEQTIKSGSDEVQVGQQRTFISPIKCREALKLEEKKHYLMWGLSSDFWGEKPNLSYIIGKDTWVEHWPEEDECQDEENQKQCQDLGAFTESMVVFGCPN

Binder	inhibition of hemolysis IC50 [nM]
Ac-EGSAICIWQDWGEHRCTEGK([γGlu-C16 diacid])-NH2 (disulfide 6-16; SMILES CC[C@H](C)[C@H](NC(=O)[C@H](C)NC(=O)[C@H](CO)NC(=O)CNC(=O)[C@H](CCC(=O)O)NC(C)=O)C(=O)N[C@H]1CSSC[C@@H](C(=O)N[C@H](C(=O)N[C@@H](CCC(=O)O)C(=O)NCC(=O)N[C@@H](CCCCNC(=O)CC[C@H](NC(=O)CCCCCCCCCCCCCCC(=O)O)C(=O)O)C(N)=O)[C@@H](C)O)NC(=O)[C@H](CCCNC(=N)N)NC(=O)[C@H](Cc2c[nH]cn2)NC(=O)[C@H](CCC(=O)O)NC(=O)CNC(=O)[C@H](Cc2c[nH]c3ccccc23)NC(=O)[C@H](CC(=O)O)NC(=O)[C@H](CCC(N)=O)NC(=O)[C@H](Cc2c[nH]c3ccccc23)NC(=O)[C@H]([C@@H](C)CC)NC1=O) [Compound 101]	< 500
{C18 diacid}-EGSEYCI[Trp(1-Me)]QDWGEHRC[Sar]E-NH2 (disulfide 6-16; SMILES CC[C@H](C)[C@@H]1NC(=O)[C@@H](NC(=O)[C@H](Cc2ccc(O)cc2)NC(=O)[C@H](CCC(=O)O)NC(=O)[C@H](CO)NC(=O)CNC(=O)[C@H](CCC(=O)O)NC(=O)CCCCCCCCCCCCCCCCC(=O)O)CSSC[C@@H](C(=O)N(C)CC(=O)N[C@@H](CCC(=O)O)C(N)=O)NC(=O)[C@H](CCCNC(=N)N)NC(=O)[C@H](Cc2c[nH]cn2)NC(=O)[C@H](CCC(=O)O)NC(=O)CNC(=O)[C@H](Cc2c[nH]c3ccccc23)NC(=O)[C@H](CC(=O)O)NC(=O)[C@H](CCC(N)=O)NC(=O)[C@H](Cc2cn(C)c3ccccc23)NC1=O) [Compound 108]	< 500
Ac-ASGEYCI[Trp(1-Me)]QDWGEHRC[Sar]EGEK([γGlu-Gly-γGlu-C18 diacid])-NH2 (disulfide 6-16; SMILES CC[C@H](C)[C@@H]1NC(=O)[C@@H](NC(=O)[C@H](Cc2ccc(O)cc2)NC(=O)[C@H](CCC(=O)O)NC(=O)CNC(=O)[C@H](CO)NC(=O)[C@H](C)NC(C)=O)CSSC[C@@H](C(=O)N(C)CC(=O)N[C@@H](CCC(=O)O)C(=O)NCC(=O)N[C@@H](CCC(=O)O)C(=O)N[C@@H](CCCCNC(=O)CC[C@H](NC(=O)CNC(=O)CC[C@H](NC(=O)CCCCCCCCCCCCCCCCC(=O)O)C(=O)O)C(=O)O)C(N)=O)NC(=O)[C@H](CCCNC(=N)N)NC(=O)[C@H](Cc2c[nH]cn2)NC(=O)[C@H](CCC(=O)O)NC(=O)CNC(=O)[C@H](Cc2c[nH]c3ccccc23)NC(=O)[C@H](CC(=O)O)NC(=O)[C@H](CCC(N)=O)NC(=O)[C@H](Cc2cn(C)c3ccccc23)NC1=O) [Compound 113]	< 500
Ac-K([AEEA-AEEA-γGlu-C16 diacid])GSAICIWQDWGEHRCTEGE-NH2 (disulfide 6-16; SMILES CC[C@H](C)[C@H](NC(=O)[C@H](C)NC(=O)[C@H](CO)NC(=O)CNC(=O)[C@H](CCCCNC(=O)COCCOCCNC(=O)COCCOCCNC(=O)CC[C@H](NC(=O)CCCCCCCCCCCCCCC(=O)O)C(=O)O)NC(C)=O)C(=O)N[C@H]1CSSC[C@@H](C(=O)N[C@H](C(=O)N[C@@H](CCC(=O)O)C(=O)NCC(=O)N[C@@H](CCC(=O)O)C(N)=O)[C@@H](C)O)NC(=O)[C@H](CCCNC(=N)N)NC(=O)[C@H](Cc2c[nH]cn2)NC(=O)[C@H](CCC(=O)O)NC(=O)CNC(=O)[C@H](Cc2c[nH]c3ccccc23)NC(=O)[C@H](CC(=O)O)NC(=O)[C@H](CCC(N)=O)NC(=O)[C@H](Cc2c[nH]c3ccccc23)NC(=O)[C@H]([C@@H](C)CC)NC1=O) [Compound 100]	< 500
{C16 diacid}-ESSAICIWQDWGEHRCTEGE-NH2 (disulfide 6-16) [Compound 99]	< 250
Ac-EGSAYCI[Trp(1-Me)]QDWGEHRC[Sar]EGKK([γGlu-Gly-γGlu-C18 diacid])-NH2 (disulfide 6-16; SMILES CC[C@H](C)[C@@H]1NC(=O)[C@@H](NC(=O)[C@H](Cc2ccc(O)cc2)NC(=O)[C@H](C)NC(=O)[C@H](CO)NC(=O)CNC(=O)[C@H](CCC(=O)O)NC(C)=O)CSSC[C@@H](C(=O)N(C)CC(=O)N[C@@H](CCC(=O)O)C(=O)NCC(=O)N[C@@H](CCCCN)C(=O)N[C@@H](CCCCNC(=O)CC[C@H](NC(=O)CNC(=O)CC[C@H](NC(=O)CCCCCCCCCCCCCCCCC(=O)O)C(=O)O)C(=O)O)C(N)=O)NC(=O)[C@H](CCCNC(=N)N)NC(=O)[C@H](Cc2c[nH]cn2)NC(=O)[C@H](CCC(=O)O)NC(=O)CNC(=O)[C@H](Cc2c[nH]c3ccccc23)NC(=O)[C@H](CC(=O)O)NC(=O)[C@H](CCC(N)=O)NC(=O)[C@H](Cc2cn(C)c3ccccc23)NC1=O) [Compound 110]	< 250
Ac-ICIWQDWGEHRCTEGEK([AEEA-AEEA-γGlu-C18 diacid])-NH2 (disulfide 2-12; SMILES CC[C@H](C)[C@H](NC(C)=O)C(=O)N[C@H]1CSSC[C@@H](C(=O)N[C@H](C(=O)N[C@@H](CCC(=O)O)C(=O)NCC(=O)N[C@@H](CCC(=O)O)C(=O)N[C@@H](CCCCNC(=O)COCCOCCNC(=O)COCCOCCNC(=O)CC[C@H](NC(=O)CCCCCCCCCCCCCCCCC(=O)O)C(=O)O)C(N)=O)[C@@H](C)O)NC(=O)[C@H](CCCNC(=N)N)NC(=O)[C@H](Cc2c[nH]cn2)NC(=O)[C@H](CCC(=O)O)NC(=O)CNC(=O)[C@H](Cc2c[nH]c3ccccc23)NC(=O)[C@H](CC(=O)O)NC(=O)[C@H](CCC(N)=O)NC(=O)[C@H](Cc2c[nH]c3ccccc23)NC(=O)[C@H]([C@@H](C)CC)NC1=O) [Compound 97]	< 250
Ac-SAYCI[Trp(1-Me)]QDWGEHRC[Sar]EK([γGlu-Gly-Lys-γGlu-C18 diacid])-NH2 (disulfide 4-14) [Compound 105]	< 100
Ac-ICIWQDWGEHRCTEGK([AEEA-AEEA-γGlu-C20 diacid])-NH2 (disulfide 2-12; SMILES CC[C@H](C)[C@H](NC(C)=O)C(=O)N[C@H]1CSSC[C@@H](C(=O)N[C@H](C(=O)N[C@@H](CCC(=O)O)C(=O)NCC(=O)N[C@@H](CCCCNC(=O)COCCOCCNC(=O)COCCOCCNC(=O)CC[C@H](NC(=O)CCCCCCCCCCCCCCCCCCC(=O)O)C(=O)O)C(N)=O)[C@@H](C)O)NC(=O)[C@H](CCCNC(=N)N)NC(=O)[C@H](Cc2c[nH]cn2)NC(=O)[C@H](CCC(=O)O)NC(=O)CNC(=O)[C@H](Cc2c[nH]c3ccccc23)NC(=O)[C@H](CC(=O)O)NC(=O)[C@H](CCC(N)=O)NC(=O)[C@H](Cc2c[nH]c3ccccc23)NC(=O)[C@H]([C@@H](C)CC)NC1=O) [Compound 98]	< 500
Ac-SEYCI[Trp(1-Me)]QDWGEHRC[Sar]EGAK([γGlu-Gly-γGlu-C18 diacid])-NH2 (disulfide 4-14; SMILES CC[C@H](C)[C@@H]1NC(=O)[C@@H](NC(=O)[C@H](Cc2ccc(O)cc2)NC(=O)[C@H](CCC(=O)O)NC(=O)[C@H](CO)NC(C)=O)CSSC[C@@H](C(=O)N(C)CC(=O)N[C@@H](CCC(=O)O)C(=O)NCC(=O)N[C@@H](C)C(=O)N[C@@H](CCCCNC(=O)CC[C@H](NC(=O)CNC(=O)CC[C@H](NC(=O)CCCCCCCCCCCCCCCCC(=O)O)C(=O)O)C(=O)O)C(N)=O)NC(=O)[C@H](CCCNC(=N)N)NC(=O)[C@H](Cc2c[nH]cn2)NC(=O)[C@H](CCC(=O)O)NC(=O)CNC(=O)[C@H](Cc2c[nH]c3ccccc23)NC(=O)[C@H](CC(=O)O)NC(=O)[C@H](CCC(N)=O)NC(=O)[C@H](Cc2cn(C)c3ccccc23)NC1=O) [Compound 112]	< 500
Ac-ICIWQDWGKHRCT-NH2 (disulfide 2-12; SMILES CC[C@H](C)[C@H](NC(C)=O)C(=O)N[C@H]1CSSC[C@@H](C(=O)N[C@H](C(N)=O)[C@@H](C)O)NC(=O)[C@H](CCCNC(=N)N)NC(=O)[C@H](Cc2c[nH]cn2)NC(=O)[C@H](CCCCN)NC(=O)CNC(=O)[C@H](Cc2c[nH]c3ccccc23)NC(=O)[C@H](CC(=O)O)NC(=O)[C@H](CCC(N)=O)NC(=O)[C@H](Cc2c[nH]c3ccccc23)NC(=O)[C@H]([C@@H](C)CC)NC1=O) [Compound 5]	< 250
Ac-EGSAYCI[Trp(1-Me)]QDWGEHK([AEEA-AEEA-γGlu-C16 diacid])C[Sar]E-NH2 (disulfide 6-16; SMILES CC[C@H](C)[C@@H]1NC(=O)[C@@H](NC(=O)[C@H](Cc2ccc(O)cc2)NC(=O)[C@H](C)NC(=O)[C@H](CO)NC(=O)CNC(=O)[C@H](CCC(=O)O)NC(C)=O)CSSC[C@@H](C(=O)N(C)CC(=O)N[C@@H](CCC(=O)O)C(N)=O)NC(=O)[C@H](CCCCNC(=O)COCCOCCNC(=O)COCCOCCNC(=O)CC[C@H](NC(=O)CCCCCCCCCCCCCCC(=O)O)C(=O)O)NC(=O)[C@H](Cc2c[nH]cn2)NC(=O)[C@H](CCC(=O)O)NC(=O)CNC(=O)[C@H](Cc2c[nH]c3ccccc23)NC(=O)[C@H](CC(=O)O)NC(=O)[C@H](CCC(N)=O)NC(=O)[C@H](Cc2cn(C)c3ccccc23)NC1=O) [Compound 103]	< 100
Ac-EGSAYCI[Trp(1-Me)]QDWGEHRC[Sar]EGEK([γGlu-Gly-γGlu-C18 diacid])-NH2 (disulfide 6-16; SMILES CC[C@H](C)[C@@H]1NC(=O)[C@@H](NC(=O)[C@H](Cc2ccc(O)cc2)NC(=O)[C@H](C)NC(=O)[C@H](CO)NC(=O)CNC(=O)[C@H](CCC(=O)O)NC(C)=O)CSSC[C@@H](C(=O)N(C)CC(=O)N[C@@H](CCC(=O)O)C(=O)NCC(=O)N[C@@H](CCC(=O)O)C(=O)N[C@@H](CCCCNC(=O)CC[C@H](NC(=O)CNC(=O)CC[C@H](NC(=O)CCCCCCCCCCCCCCCCC(=O)O)C(=O)O)C(=O)O)C(N)=O)NC(=O)[C@H](CCCNC(=N)N)NC(=O)[C@H](Cc2c[nH]cn2)NC(=O)[C@H](CCC(=O)O)NC(=O)CNC(=O)[C@H](Cc2c[nH]c3ccccc23)NC(=O)[C@H](CC(=O)O)NC(=O)[C@H](CCC(N)=O)NC(=O)[C@H](Cc2cn(C)c3ccccc23)NC1=O) [Compound 109]	< 250
